Experimental data as given in publication PMC7613929 (Nature microbiology, 2022).

B1: E. coli FtsN cytoplasmic tail peptide, residues 1-32 (EcFtsN^1-32) [E. coli] / E. coli FtsA (EcFtsA), full length [E. coli] (parent complex)
chain 1: MAQRDYVRRSQPAPSRRKKSTSRKKQRNLPAV
chain 2: MIKATDRKLVVGLEIGTAKVAALVGEVLPDGMVNIIGVGSCPSRGMDKGGVNDLESVVKCVQRAIDQAELMADCQISSVYLALSGKHISCQNEIGMVPISEEEVTQEDVENVVHTAKSVRVRDEHRVLHVIPQEYAIDYQEGIKNPVGLSGVRMQAKVHLITCHNDMAKNIVKAVERCGLKVDQLIFAGLASSYSVLTEDERELGVCVVDIGGGTMDIAVYTGGALRHTKVIPYAGNVVTSDIAYAFGTPPSDAEAIKVRHGCALGSIVGKDESVEVPSVGGRPPRSLQRQTLAEVIEPRYTELLNLVNEEILQLQEKLRQQGVKHHLAAGIVLTGGAAQIEGLAACAQRVFHTQVRIGAPLNITGLTDYAQEPYYSTAVGLLHYGKESHLNGEAEVEKRVTASVGSWIKRLNSWLRKEF

Variants of: B1
Experiment: SPR; FtsA immobilised on CM5 chip via amide coupling; peptide 1:2 dilution series from 20 μM; maximum response fixed during fitting (asterisk)

Variant	Kd
chain 1 MAQRDYVRRSQPAPSAASASTSRKKQRNLPAV	~166 µM
chain 1 MAQRDYVRRSQPAPSRRKKSTSASAQRNLPAV	~80.6 µM
